Measurements from patent US20230227538A1 (published 2023).
Residue numbers refer to the chain shown, from its start.

Assays:
SC2 spike ECD = experiment: SPR
SpikeS2P = experiment: SPR
[1] = target: SARS-CoV-2 Spike receptor binding domain (RBD) (SARS-CoV-2, UniProt P0DTC2 319-541); experiment: flow

B1: NbCOV11 (VHH)
VHH: HVQLVESGGGLVQAGGSLRLSCAVSGASAERVGWFRRAPGKEREFVAAIGANGGSTNYLDSVKGRFTISRDNAKNTVYLQMNSLKPQDTAVYYCAARNLETFDYTYWGRGTQVTVSS
B1 was tested, and the Kd (SC2 spike ECD) was 0.141 µM.

B2: mNb6 (VHH)
VHH: QVQLVESGGGLVQAGGSLRLSCAASGYIFGRNAMGWYRQAPGKERELVAGITRRGSITYYADSVKGRFTISRDNAKNTVYLQMNSLKPEDTAVYYCAADPASPAYGDYWGQGTQVTVSS
In the case of B2, the Kd (SpikeS2P) is reported as 0.00045 µM.

B3: Nb6 (AeroNab6, NbCOV6, clone pNbCOV006A) (VHH)
VHH: B2 VHH with Y27I, Y105P
With B3 the EC50 [1] was 0.03 µM.
